B1: Friend leukemia integration 1 transcription factor, residues 116 to 197; numbered along this chain, Q01543 (parent)
chain: NMTTNERRVIVPADPTLWTQEHVRQWLEWAIKEYSLMEIDTSFFQNMDGKELCKMNKEDFLRATTLYNTEVLLSHLSYLRES

In the Human Domainome abundance scans (Beltran et al. 2025) one finds abundance fitness data, which are given here for 34 variants.

± gives the uncertainty stated by the source.

Variants of B1 are the subject of this data set. The experiment in a line: abundance fitness (aPCA) (normalised: wild type 0, dead -1); higher = more abundant; growth selection in yeast, the domain comes from the species named. The settings on record: Homo sapiens.
In the case of NMTTNERRVIVPADPTLWTQEHVRQWLEWAIKEYSLMEIDTSFFQNMKGKELCKMNKEDFLRATTLYNTEVLLSHLSYLRES [D48K], the abundance fitness was -0.227 ± 0.12.
In the case of NMTTNERRVIVPADPTLWTQEHVRQWLEWAIKEYSLMEIDTSFFQNMPGKELCKMNKEDFLRATTLYNTEVLLSHLSYLRES [D48P] it was -0.295 ± 0.094.
In the case of NMTTNERRVIVPADPTLWTQEHVRQWLEWAIKEYSLMEIDTSFFQNMYGKELCKMNKEDFLRATTLYNTEVLLSHLSYLRES [D48Y], the abundance fitness was -0.358 ± 0.23.
In the case of NMTTNERRVIVPADPTLWTQEHVRQWLEWAIKEYSLMEIDTSFFQNMHGKELCKMNKEDFLRATTLYNTEVLLSHLSYLRES [D48H] it was -0.366 ± 0.23.
With NMTTNERRVIVPADPTLWTQEHVRQWLEWAIKEYSLMEIDTSFFQNMTGKELCKMNKEDFLRATTLYNTEVLLSHLSYLRES [D48T] the figure was -0.04 ± 0.11; with NMTTNERRVIVPADPTLWTQEHVRQWLEWAIKEYSLMEIDTSFFQNMGGKELCKMNKEDFLRATTLYNTEVLLSHLSYLRES [D48G], -0.114 ± 0.094.
With NMTTNERRVIVPADPTLWTQEHVRQWLEWAIKEYSLMEIDTSFFQNMDGNELCKMNKEDFLRATTLYNTEVLLSHLSYLRES [K50N] the figure was 0.068 ± 0.15; with NMTTNERRVIVPADPTLWTQEHVRQWLEWAIKEYSLMEIDTSFFQNMDGMELCKMNKEDFLRATTLYNTEVLLSHLSYLRES [K50M], -0.087 ± 0.12; with NMTTNERRVIVPADPTLWTQEHVRQWLEWAIKEYSLMEIDTSFFQNMDGCELCKMNKEDFLRATTLYNTEVLLSHLSYLRES [K50C], -0.281 ± 0.23.
With NMTTNERRVIVPADPTLWTQEHVRQWLEWAIKEYSLMEIDTSFFQNMDGDELCKMNKEDFLRATTLYNTEVLLSHLSYLRES [K50D], the abundance fitness is -0.093 ± 0.14.
With NMTTNERRVIVPADPTLWTQEHVRQWLEWAIKEYSLMEIDTSFFQNMDGYELCKMNKEDFLRATTLYNTEVLLSHLSYLRES [K50Y] the figure was 0.249 ± 0.23; with NMTTNERRVIVPADPTLWTQEHVRQWLEWAIKEYSLMEIDTSFFQNMDGEELCKMNKEDFLRATTLYNTEVLLSHLSYLRES [K50E], 0.058 ± 0.1.
With NMTTNERRVIVPADPTLWTQEHVRQWLEWAIKEYSLMEIDTSFFQNMDGVELCKMNKEDFLRATTLYNTEVLLSHLSYLRES [K50V], the abundance fitness is -0.159 ± 0.1.
As to NMTTNERRVIVPADPTLWTQEHVRQWLEWAIKEYSLMEIDTSFFQNMDGFELCKMNKEDFLRATTLYNTEVLLSHLSYLRES [K50F], the abundance fitness was -0.064 ± 0.053.
For the variant NMTTNERRVIVPADPTLWTQEHVRQWLEWAIKEYSLMEIDTSFFQNMDGWELCKMNKEDFLRATTLYNTEVLLSHLSYLRES [K50W], the abundance fitness is -0.239 ± 0.078.
NMTTNERRVIVPADPTLWTQEHVRQWLEWAIKEYSLMEIDTSFFQNMDGIELCKMNKEDFLRATTLYNTEVLLSHLSYLRES [K50I]: the abundance fitness is -0.113 ± 0.18.
In the case of NMTTNERRVIVPADPTLWTQEHVRQWLEWAIKEYSLMEIDTSFFQNMDGPELCKMNKEDFLRATTLYNTEVLLSHLSYLRES [K50P] it was 0.013 ± 0.096; in that of NMTTNERRVIVPADPTLWTQEHVRQWLEWAIKEYSLMEIDTSFFQNMDGGELCKMNKEDFLRATTLYNTEVLLSHLSYLRES [K50G], -0.059 ± 0.086.
With NMTTNERRVIVPADPTLWTQEHVRQWLEWAIKEYSLMEIDTSFFQNMDGQELCKMNKEDFLRATTLYNTEVLLSHLSYLRES [K50Q] the figure was 0.013 ± 0.1; with NMTTNERRVIVPADPTLWTQEHVRQWLEWAIKEYSLMEIDTSFFQNMDGSELCKMNKEDFLRATTLYNTEVLLSHLSYLRES [K50S], -0.032 ± 0.077.
With NMTTNERRVIVPADPTLWTQEHVRQWLEWAIKEYSLMEIDTSFFQNMDGHELCKMNKEDFLRATTLYNTEVLLSHLSYLRES [K50H] the figure was 0.031 ± 0.067.
For the variant NMTTNERRVIVPADPTLWTQEHVRQWLEWAIKEYSLMEIDTSFFQNMDGTELCKMNKEDFLRATTLYNTEVLLSHLSYLRES [K50T], the abundance fitness stood at 0.212 ± 0.079.
In the case of NMTTNERRVIVPADPTLWTQEHVRQWLEWAIKEYSLMEIDTSFFQNMDGLELCKMNKEDFLRATTLYNTEVLLSHLSYLRES [K50L] it was -0.12 ± 0.072; in that of NMTTNERRVIVPADPTLWTQEHVRQWLEWAIKEYSLMEIDTSFFQNMDIKELCKMNKEDFLRATTLYNTEVLLSHLSYLRES [G49I], -0.506 ± 0.28; in that of NMTTNERRVIVPADPTLWTQEHVRQWLEWAIKEYSLMEIDTSFFQNMDLKELCKMNKEDFLRATTLYNTEVLLSHLSYLRES [G49L], -0.579 ± 0.093.
In the case of NMTTNERRVIVPADPTLWTQEHVRQWLEWAIKEYSLMEIDTSFFQNMDAKELCKMNKEDFLRATTLYNTEVLLSHLSYLRES [G49A] it was -1.01 ± 0.15; in that of NMTTNERRVIVPADPTLWTQEHVRQWLEWAIKEYSLMEIDTSFFQNMDKKELCKMNKEDFLRATTLYNTEVLLSHLSYLRES [G49K], -0.994 ± 0.42.
In the case of NMTTNERRVIVPADPTLWTQEHVRQWLEWAIKEYSLMEIDTSFFQNMDVKELCKMNKEDFLRATTLYNTEVLLSHLSYLRES [G49V] it was -0.755 ± 0.14; in that of NMTTNERRVIVPADPTLWTQEHVRQWLEWAIKEYSLMEIDTSFFQNMDTKELCKMNKEDFLRATTLYNTEVLLSHLSYLRES [G49T], -0.919 ± 0.27; in that of NMTTNERRVIVPADPTLWTQEHVRQWLEWAIKEYSLMEIDTSFFQNMDMKELCKMNKEDFLRATTLYNTEVLLSHLSYLRES [G49M], -0.965 ± 0.38.
Turning to NMTTNERRVIVPADPTLWTQEHVRQWLEWAIKEYSLMEIDTSFFQNMDWKELCKMNKEDFLRATTLYNTEVLLSHLSYLRES [G49W], the abundance fitness was -0.777 ± 0.25.
In the case of NMTTNERRVIVPADPTLWTQEHVRQWLEWAIKEYSLMEIDTSFFQNMDRKELCKMNKEDFLRATTLYNTEVLLSHLSYLRES [G49R] it was -0.889 ± 0.13.
With NMTTNERRVIVPADPTLWTQEHVRQWLEWAIKEYSLMEIDTSFFQNMDSKELCKMNKEDFLRATTLYNTEVLLSHLSYLRES [G49S] the figure was -0.943 ± 0.16.
As to NMTTNERRVIVPADPTLWTQEHVRQWLEWAIKEYSLMEIDTSFFQNMDQKELCKMNKEDFLRATTLYNTEVLLSHLSYLRES [G49Q], the abundance fitness was -0.977 ± 0.49.
